Measured values: patent US20240343762A1, “USE OF PROTON PUMP MODULATOR IN PREPARING REAGENT” (SHANGHAI QUIETD BIOTECHNOLOGY CO. LTD., priority 2021, published 2024)

Legend:
[1] = target: T1, murine ATP6V1B2 1-286aa truncated sequence (Mus musculus, UniProt P62814); assay: Co-immunoprecipitation of EGFP-tagged QD202 with Myc-tagged ATP6V1B2 1-286aa truncated sequence in 293 cells; type: binding; conditions: Myc antibody, immunoblotting
T1 construct: expressed in transfected cells; host or cells: 293 cells
Source text: (§1) Expression plasmids including murine ATP6V1B2 full-length sequence, 1-286aa truncated sequence or 1-172aa truncated sequence with a Myc tag are respectively constructed; the amino acid sequence of the murine ATP6V1B2 full-length sequence was as set forth in SEQ ID NO. 8, the amino acid sequence of the murine ATP6V1B21-286aa was as set forth in SEQ ID NO. 10; the amino acid sequence of the murine ATP6V1B21-172aa as set forth in as SEQ ID NO. 11; and these plasmids were respectively called as an ATP6V1B2 full-length expression plasmid, an ATP6V1B21-286aa expression plasmid and an ATP6V1B21-172aa expression plasmid. Meanwhile, a QD202 expression plasmid with an EGFP tag was constructed. […]
(§2) Then a Protein G agarose bead was added to be bound to the Myc antibody, so as to precipitate the ATP6V1B2 full-length protein, the 1-286aa truncated sequence or the 1-172aa truncated sequence, and proteins which were bound to one another, and finally the proteins subjected to co-immunoprecipitation was detected by virtue of an immunoblotting method.

[2] = target: T2, murine ATP6V1B2 1-172aa truncated sequence (Mus musculus, UniProt P62814); assay: Co-immunoprecipitation of EGFP-tagged QD202 with Myc-tagged ATP6V1B2 1-172aa truncated sequence in 293 cells; type: binding; conditions: Myc antibody, immunoblotting
T2 construct: expressed in transfected cells; host or cells: 293 cells
Source text: as §1, §2

T1 sequence (P62814 1-286): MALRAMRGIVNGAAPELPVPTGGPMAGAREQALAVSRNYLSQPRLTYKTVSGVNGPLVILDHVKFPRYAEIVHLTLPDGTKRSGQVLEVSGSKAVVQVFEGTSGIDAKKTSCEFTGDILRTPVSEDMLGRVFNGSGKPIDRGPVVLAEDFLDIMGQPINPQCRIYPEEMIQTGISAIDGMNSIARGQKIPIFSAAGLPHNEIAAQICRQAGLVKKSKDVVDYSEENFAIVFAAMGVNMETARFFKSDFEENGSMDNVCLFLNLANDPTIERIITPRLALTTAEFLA
T2 sequence (P62814 1-172): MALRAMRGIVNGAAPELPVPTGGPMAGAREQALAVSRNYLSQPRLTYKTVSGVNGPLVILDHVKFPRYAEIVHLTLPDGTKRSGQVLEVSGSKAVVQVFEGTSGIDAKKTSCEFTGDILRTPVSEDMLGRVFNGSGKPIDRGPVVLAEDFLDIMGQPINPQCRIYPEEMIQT

## QD202: polypeptide synthesized according to the amino acid sequence as set forth in SEQ ID NO. 1 (YGRKKRRQRRRSPVDVVCS; QD202)
[1]
  binding to ATP6V1B2 1-286aa truncated sequence by co-immunoprecipitation: only the full-length ATP6V1B2 protein can be combined
[2]
  binding to ATP6V1B2 1-172aa truncated sequence by co-immunoprecipitation: only the full-length ATP6V1B2 protein can be combined
